Reference: publication PMC6304784, “Pathological mutations differentially affect the self-assembly and polymerisation of the innate immune system signalling adaptor molecule MyD88” (BMC Biology, 2018)

B1: GFP-tagged MyD88 TIR domain (residues 159-296) (domain or fragment, human, UniProt Q99836 159-296, looked up)
chain: ERFDAFICYCPSDIQFVQEMIRQLEQTNYRLKLCVSDRDVLPGTCVWSIASELIEKRCRRMVVVVSDDYLQSKECDFQTKFALSLSPGAHQKRLIPIKYKAMKKEFPSILRFITVCDYTNPCTKSWFWTRLAKALSLP
notes: MyD88 TIR domain, residues 159-296; also called TIR domain alone; source: in vitro translated in Leishmania tarentolae extract (LTE), measured without purification; not shown: GFP, N-terminal, kept
B2: GFP-tagged MyD88 death domain (residues 1-117, includes part of the intermediate domain) (domain or fragment, human, UniProt Q99836 1-117, looked up)
chain: MAAGGPGAGSAAPVSSTSSLPLAALNMRVRRRLSLFLNVRTQVAADWTALAEEMDFEYLEIRQLETQADPTGRLLDAWQGRPGASVGRLLELLTKLGRDDVLLELGPSIEEDCQKYI
notes: MyD88 death domain with the crucial part of the intermediate domain, residues 1-117; also called DD; death domain alone; source: in vitro translated in Leishmania tarentolae extract (LTE), measured without purification; not shown: GFP, N-terminal, kept

Biological target: the molecule itself
Test: single-molecule fluorescence fluctuation spectroscopy (brightness B parameter, time-traces, intensity histograms); GFP-tagged protein freely diffusing in the cell-free expression mixture on a confocal microscope, 488-nm laser; dilution series of the DNA template giving 0 to about 320 nM protein; mutants compared at 150 nM; samples diluted 10 times in buffer A

Protein	average brightness B (> 150 nM) relative to monomeric sfGFP
B1	~4 fold over monomeric GFP
B2	~8 fold over monomeric GFP
